Results as given in the supplement of paper PMC11246515.
± gives the standard deviation of the averaged measurements.

Experiment: total protein half-life in vivo (active degradation + dilution); higher = more stable protein
[1] = E. coli NCM3722 delta-clpP, growth: N-lim chemostat, doubling time 6 h
[2] = E. coli NCM3722 delta-hslV, growth: N-lim chemostat, doubling time 6 h
[3] = E. coli NCM3722 delta-lon, growth: N-lim chemostat, doubling time 6 h
[4] = E. coli NCM3722 delta-smpB, growth: N-lim chemostat, doubling time 6 h
[5] = wild type E. coli NCM3722, growth: C-lim chemostat, doubling time 3 h
[6] = wild type E. coli NCM3722, growth: C-lim chemostat, doubling time 6 h
[7] = wild type E. coli NCM3722, growth: C-lim chemostat, doubling time 12 h
[8] = wild type E. coli NCM3722, growth: N-lim chemostat, doubling time 6 h
[9] = wild type E. coli NCM3722, growth: N-lim chemostat, doubling time 12 h
[10] = wild type E. coli NCM3722, growth: P-lim chemostat, doubling time 6 h
[11] = wild type E. coli NCM3722, growth: P-lim chemostat, doubling time 12 h
[12] = E. coli NCM3722 delta-clpP delta-lon delta-hslV, growth: N-lim chemostat, doubling time 6 h

Sequence	total protein half-life in vivo [1] [h]	total protein half-life in vivo [2] [h]	total protein half-life in vivo [3] [h]	total protein half-life in vivo [4] [h]	total protein half-life in vivo [5] [h]	total protein half-life in vivo [6] [h]	total protein half-life in vivo [7] [h]	total protein half-life in vivo [8] [h]	total protein half-life in vivo [9] [h]	total protein half-life in vivo [10] [h]	total protein half-life in vivo [11] [h]	total protein half-life in vivo [12] [h]
MATYYSNDFRAGLKIMLDGEPYAVEASEFVKPGKGQAFARVKLRRLLTGTRVEKTFKSTDSAEGADVVDMNLTYLYNDGEFWHFMNNETFEQLSADAKAIGDNAKWLLDQAECIVTLWNGQPISVTPPNFVELEIVDTDPGLKGDTAGTGGKPATLSTGAVVKVPLFVQIGEVIKVDTRSGEYVSRVK [P0A6N4]	4.46 ± 0.85	4.41 ± 0.21	5.35 ± 0.54	4.285 ± 0.022	2.91 ± 0.13	4.775 ± 0.023	8.29 ± 0.57	4.24 ± 0.074	5.76 ± 0.19	4.32 ± 0.1	8.07 ± 0.47	
MAVHLLIVDALNLIRRIHAVQGSPCVETCQHALDQLIMHSQPTHAVAVFDDENRSSGWRHQRLPDYKAGRPPMPEELHDEMPALRAAFEQRGVPCWSTSGNEADDLAATLAVKVTQAGHQATIVSTDKGYCQLLSPTLRIRDYFQKRWLDAPFIDKEFGVQPQQLPDYWGLAGISSSKVPGVAGIGPKSATQLLVEFQSLEGIYENLDAVAEKWRKKLETHKEMAFLCRDIARLQTDLHIDGNLQQLRLVR	4.23 ± 0.28	4.29	5.14 ± 0.59	3.86 ± 0.59	2.66 ± 0.54		10.7 ± 0.93	4.2 ± 0.5	8.02	5.06 ± 0.52	10.7 ± 1.7	4.94 ± 0.096
MAVNLLKKNSLALVASLLLAGHVQATELLNSSYDVSRELFAALNPPFEQQWAKDNGGDKLTIKQSHAGSSKQALAILQGLKADVVTYNQVTDVQILHDKGKLIPADWQSRLPNNSSPFYSTMGFLVRKGNPKNIHDWNDLVRSDVKLIFPNPKTSGNARYTYLAAWGAADKADGGDKGKTEQFMTQFLKNVEVFDTGGRGATTTFAERGLGDVLISFESEVNNIRKQYEAQGFEVVIPKTNILAEFPVAWVDKNVQANGTEKAAKAYLNWLYSPQAQTIITDYYYRVNNPEVMDKLKDKFPQTELFRVEDKFGSWPEVMKTHFTSGGELDKLLAAGRN	5.26 ± 0.17	6.24 ± 0.08	6.861 ± 0.011	5.74 ± 0.07	3.3 ± 0.27	6.1057 ± 0.00027	10 ± 0.37	6.338 ± 0.056	12.8 ± 0.46	6.18 ± 0.1	12.4 ± 0.31	4.09 ± 0.2
MAWNQPGNNGQDRDPWGSSKPGGNSEGNGNKGGRDQGPPDLDDIFRKLSKKLGGLGGGKGTGSGGGSSSQGPRPQLGGRVVTIAAAAIVIIWAASGFYTIKEAERGVVTRFGKFSHLVEPGLNWKPTFIDEVKPVNVEAVRELAASGVMLTSDENVVRVEMNVQYRVTNPEKYLYSVTSPDDSLRQATDSALRGVIGKYTMDRILTEGRTVIRSDTQRELEETIRPYDMGITLLDVNFQAARPPEEVKAAFDDAIAARENEQQYIREAEAYTNEVQPRANGQAQRILEEARAYKAQTILEAQGEVARFAKLLPEYKAAPEITRERLYIETMEKVLGNTRKVLVNDKGGNLMVLPLDQMLKGGNAPAAKSDNGASNLLRLPPASSSTTSGASNTSSTSQGDIMDQRRANAQRNDYQRQGE [P0ABC7]		6.71 ± 0.23	6.55 ± 0.23	6.38 ± 0.49	2.99 ± 0.1	6.35 ± 0.6	13.1 ± 1	6.52 ± 0.65	13.8 ± 0.55	6.06 ± 0.31	13.98 ± 0.078	7 ± 0.75
MAYKHIGVAISGNEEDALLVNKALELARHNDAHLTLIHIDDGLSELYPGIYFPATEDILQLLKNKSDNKLYKLTKNIQWPKTKLRIERGEMPETLLEIMQKEQCDLLVCGHHHSFINRLMPAYRGMINKMSADLLIVPFIDK [P0AAB8]	3.79 ± 0.29	3.73	4.56 ± 0.14	2.7 ± 0.18	2.99	5.49	9.51 ± 0.66	3.69	5.52 ± 0.12	4.66 ± 0.43	10.7 ± 0.12	4.18 ± 0.41
MAYRSAPLYEDVIWRTHLQPQDPTLAQAVRATIAKHREHLLEFIRLDEPAPLNAMTLAQWSSPNVLSSLLAVYSDHIYRNQPMMIRENKPLISLWAQWYIGLMVPPLMLALLTQEKALDVSPEHFHAEFHETGRVACFWVDVCEDKNATPHSPQHRMETLISQALVPVVQALEATGEINGKLIWSNTGYLINWYLTEMKQLLGEATVESLRHALFFEKTLTNGEDNPLWRTVVLRDGLLVRRTCCQRYRLPDVQQCGDCTLK												3.38 ± 1.1
MAYYSIGDVAERCGINPVTLRAWQRRYGLLKPQRSEGGHRLFDEEDIQRIEEIKRWISNGVPVGKVKALLETTSQDTEDDWSRLQEEMMSILRMANPAKLRARIISLGREYPVDQLINHVYLPVRQRLVLDHNTSRIMSSMFDGALIEYAATSLFEMRRKPGKEAILMAWNVEERARLWLEAWRLSLSGWHISVLADPIESPRPELFPTQTLIVWTGMAPTRRQNELLQHWGEQGYKVIFHAP	3.95 ± 2.5	1.93		1.79 ± 0.14	2.13 ± 0.29	3.02 ± 0.39	4.42 ± 0.35	2 ± 0.16	2.72 ± 0.041	1.39 ± 0.094	5.43	4.63 ± 0.56
MCELLGMSANVPTDICFSFTGLVQRGGGTGPHKDGWGITFYEGKGCRTFKDPQPSFNSPIAKLVQDYPIKSCSVVAHIRQANRGEVALENTHPFTRELWGRNWTYAHNGQLTGYKSLETGNFRPVGETDSEKAFCWLLHKLTQRYPRTPGNMAAVFKYIASLADELRQKGVFNMLLSDGRYVMAYCSTNLHWITRRAPFGVATLLDQDVEIDFSSQTTPNDVVTVIATQPLTGNETWQKIMPGEWRLFCLGERVV	5.84 ± 0.22	5.68 ± 0.45	6.32 ± 0.5	5.67 ± 0.13	3.37 ± 0.54	6.2 ± 0.066	12.6 ± 1.6	5.695 ± 0.045	12.2 ± 1.4	5.83 ± 0.3	12.5 ± 0.73	6.35 ± 0.88
MCGIVGAIAQRDVAEILLEGLRRLEYRGYDSAGLAVVDAEGHMTRLRRLGKVQMLAQAAEEHPLHGGTGIAHTRWATHGEPSEVNAHPHVSEHIVVVHNGIIENHEPLREELKARGYTFVSETDTEVIAHLVNWELKQGGTLREAVLRAIPQLRGAYGTVIMDSRHPDTLLAARSGSPLVIGLGMGENFIASDQLALLPVTRRFIFLEEGDIAEITRRSVNIFDKTGAEVKRQDIESNLQYDAGDKGIYRHYMQKEIYEQPNAIKNTLTGRISHGQVDLSELGPNADELLSKVEHIQILACGTSYNSGMVSRYWFESLAGIPCDVEIASEFRYRKSAVRRNSLMITLSQSGETADTLAGLRLSKELGYLGSLAICNVPGSSLVRESDLALMTNAGTEIGVASTKAFTTQLTVLLMLVAKLSRLKGLDASIEHDIVHGLQALPSRIEQMLSQDKRIEALAEDFSDKHHALFLGRGDQYPIALEGALKLKEISYIHAEAYAAGELKHGPLALIDADMPVIVVAPNNELLEKLKSNIEEVRARGGQLYVFADQDAGFVSSDNMHIIEMPHVEEVIAPIFYTVPLQLLAYHVALIKGTDVDQPRNLAKSVTVE	5.07 ± 1.3	4 ± 0.11	4.01 ± 0.15	3.98 ± 0.33	3.14 ± 0.23	5.37 ± 0.3	9.64 ± 0.98	4.14 ± 0.067	6.35 ± 0.37	5.8 ± 0.14	11.3 ± 0.96	5.12 ± 0.77
MCGIVGIAGVMPVNQSIYDALTVLQHRGQDAAGIITIDANNCFRLRKANGLVSDVFEARHMQRLQGNMGIGHVRYPTAGSSSASEAQPFYVNSPYGITLAHNGNLTNAHELRKKLFEEKRRHINTTSDSEILLNIFASELDNFRHYPLEADNIFAAIAATNRLIRGAYACVAMIIGHGMVAFRDPNGIRPLVLGKRDIDENRTEYMVASESVALDTLGFDFLRDVAPGEAIYITEEGQLFTRQCADNPVSNPCLFEYVYFARPDSFIDKISVYSARVNMGTKLGEKIAREWEDLDIDVVIPIPETSCDIALEIARILGKPYRQGFVKNRYVGRTFIMPGQQLRRKSVRRKLNANRAEFRDKNVLLVDDSIVRGTTSEQIIEMAREAGAKKVYLASAAPEIRFPNVYGIDMPSATELIAHGREVDEIRQIIGADGLIFQDLNDLIDAVRAENPDIQQFECSVFNGVYVTKDVDQGYLDFLDTLRNDDAKAVQRQNEVENLEMHNEG [P0AG16]	4.19 ± 0.24	2.31 ± 0.34	2.37 ± 0.23	2.13 ± 0.17	2.301 ± 0.0058	4.01 ± 0.4	5.59 ± 0.33	2.25 ± 0.18	2.8937 ± 0.00088	3.6 ± 0.23	6.17 ± 0.076	5.35 ± 1.5
MCSIFGVFDIKTDAVELRKKALELSRLMRHRGPDWSGIYASDNAILAHERLSIVDVNAGAQPLYNQQKTHVLAVNGEIYNHQALRAEYGDRYQFQTGSDCEVILALYQEKGPEFLDDLQGMFAFALYDSEKDAYLIGRDHLGIIPLYMGYDEHGQLYVASEMKALVPVCRTIKEFPAGSYLWSQDGEIRSYYHRDWFDYDAVKDNVTDKNELRQALEDSVKSHLMSDVPYGVLLSGGLDSSIISAITKKYAARRVEDQERSEAWWPQLHSFAVGLPGSPDLKAAQEVANHLGTVHHEIHFTVQEGLDAIRDVIYHIETYDVTTIRASTPMYLMSRKIKAMGIKMVLSGEGSDEVFGGYLYFHKAPNAKELHEETVRKLLALHMYDCARANKAMSAWGVEARVPFLDKKFLDVAMRINPQDKMCGNGKMEKHILRECFEAYLPASVAWRQKEQFSDGVGYSWIDTLKEVAAQQVSDQQLETARFRFPYNTPTSKEAYLYREIFEELFPLPSAAECVPGGPSVACSSAKAIEWDEAFKKMDDPSGRAVGVHQSAYK	2.71 ± 0.25	2.84 ± 0.048	3.181 ± 0.025	2.55 ± 0.069	2.87 ± 0.069	4.97 ± 0.21	7.86 ± 0.95	2.69 ± 0.025	3.857 ± 0.0049	5.61 ± 0.3	10.4 ± 0.4	3.62 ± 0.55
MDAKQRIARRVAQELRDGDIVNLGIGLPTMVANYLPEGIHITLQSENGFLGLGPVTTAHPDLVNAGGQPCGVLPGAAMFDSAMSFALIRGGHIDACVLGGLQVDEEANLANWVVPGKMVPGMGGAMDLVTGSRKVIIAMEHCAKDGSAKILRRCTMPLTAQHAVHMLVTELAVFRFIDGKMWLTEIADGCDLATVRAKTEARFEVAADLNTQRGDL			0.206					1.83				
MDFPQQLEACVKQANQALSRFIAPLPFQNTPVVETMQYGALLGGKRLRPFLVYATGHMFGVSTNTLDAPAAAVECIHAYSLIHDDLPAMDDDDLRRGLPTCHVKFGEANAILAGDALQTLAFSILSDADMPEVSDRDRISMISELASASGIAGMCGGQALDLDAEGKHVPLDALERIHRHKTGALIRAAVRLGALSAGDKGRRALPVLDKYAESIGLAFQVQDDILDVVGDTATLGKRQGADQQLGKSTYPALLGLEQARKKARDLIDDARQSLKQLAEQSLDTSALEALADYIIQRNK	5.14 ± 0.67	4.44 ± 0.056	4.579 ± 0.024	4.63 ± 0.38	3.14 ± 0.08	5.849 ± 0.0072	11.5 ± 0.9	4.46 ± 0.66	6.952 ± 0.057	5.75 ± 0.13	11.2 ± 0.6	4.5 ± 0.14
MDFPQRVNGWALYAHPCFQETYDALVAEVETLKGKDPENYQRKAATKLLAVVHKVIEEHITVNPSSPAFRHGKSLGSGKNKDWSRVKFGAGRYRLFFRYSEKEKVIILGWMNDENTLRTYGKKTDAYTVFSKMLKRGHPPADWETLTRETEETH	6.54	5.12	7.11 ± 0.75	5.58	3.3	> 8	10.2	6.09 ± 0.47	12.2	5.56 ± 0.21	15.6	
MDFSGKNVWVTGAGKGIGYATALAFVEAGAKVTGFDQAFTQEQYPFATEVMDVADAAQVAQVCQRLLAETERLDALVNAAGILRMGATDQLSKEDWQQTFAVNVGGAFNLFQQTMNQFRRQRGGAIVTVASDAAHTPRIGMSAYGASKAALKSLALSVGLELAGSGVRCNVVSPGSTDTDMQRTLWVSDDAEEQRIRGFGEQFKLGIPLGKIARPQEIANTILFLASDLASHITLQDIVVDGGSTLGA					3.26 ± 0.27							
